Sequences and labels used below:
B2: human cone PDE6C (aa 1-830), expressed as an EGFP fusion protein and released with HRV-3C protease (enzyme, UniProt P51160 1-830, looked up)
chain: MGEINQVAVEKYLEENPQFAKEYFDRKLRVEVLGEIFKNSQVPVQSSMSFSELTQVEESALCLELLWTVQEEGGTPEQGVHRALQRLAHLLQADRCSMFLCRSRNGIPEVASRLLDVTPTSKFEDNLVGPDKEVVFPLDIGIVGWAAHTKKTHNVPDVKKNSHFSDFMDKQTGYVTKNLLATPIVVGKEVLAVIMAVNKVNASEFSKQDEEVFSKYLNFVSIILRLHHTSYMYNIESRRSQILMWSANKVFEELTDVERQFHKALYTVRSYLNCERYSIGLLDMTKEKEFYDEWPIKLGEVEPYKGPKTPDGREVNFYKIIDYILHGKEEIKVIPTPPADHWTLISGLPTYVAENGFICNMMNAPADEYFTFQKGPVDETGWVIKNVLSLPIVNKKEDIVGVATFYNRKDGKPFDEHDEYITETLTQFLGWSLLNTDTYDKMNKLENRKDIAQEMLMNQTKATPEEIKSILKFQEKLNVDVIDDCEEKQLVAILKEDLPDPRSAELYEFRFSDFPLTEHGLIKCGIRLFFEINVVEKFKVPVEVLTRWMYTVRKGYRAVTYHNWRHGFNVGQTMFTLLMTGRLKKYYTDLEAFAMLAAAFCHDIDHRGTNNLYQMKSTSPLARLHGSSILERHHLEYSKTLLQDESLNIFQNLNKRQFETVIHLFEVAIIATDLALYFKKRTMFQKIVDACEQMQTEEEAIKYVTVDPTKKEIIMAMMMTACDLSAITKPWEVQSQVALMVANEFWEQGDLERTVLQQQPIPMMDRNKRDELPKLQVGFIDFVCTFVYKEFSRFHKEITPMLSGLQNNRVEWKSLADEYDAKMKVIEEEA
notes: human PDE6C, cone cGMP phosphodiesterase catalytic subunit, truncation of the C-terminal 28 residues (aa 1-830); GFP and PDE6C cDNAs were spliced with primers containing the HRV-3C site and a FLAG tag, cloned into pFastBac HT A by Gibson assembly; also called EGFP-PDE6C; source: Sf9 cells (baculovirus), alone or co-expressed with AIPL1 or with AIPL1 and Pγ; purified (EGFP-nanobody resin, HRV-3C …)

Where “and” joins values, the source holds several entries; their conditions need not be identical. Equal entries are not always repeated.

Series [1] has as its target T1, trypsin-activated PDE6AB from mouse retina extract (mouse (endogenous in retina), UniProt P27664 1-859; P23440 1-856).
T1 construct: mouse rod PDE6 catalytic subunit PDE6A, after trypsin treatment of the retina lysate; mouse rod PDE6 catalytic subunit PDE6B, after trypsin treatment of the retina lysate; Trypsin treatment degrades the endogenous Pγ; The retina extract also holds a few percent of cone PDE6C activity; also called mouse rod PDE6; source: endogenous, C57BL/J mouse retina lysate, trypsin-treated; copies: 1 + 1
The series is described as follows: inhibition of enzyme activity (cGMP hydrolysis); trypsin-treated mouse retina extract inhibited by purified recombinant Pγr; 20 mM Tris-HCl pH 7.5, 120 mM NaCl, 2 mM MgSO4, 1 mM BME, 10 μM [3H]cGMP, 25 °C. To be noted: one partner purified.

The target of series [2] is B2. The series is described as follows: inhibition of enzyme activity (cGMP hydrolysis); purified PDE6C (co-expressed with AIPL1) inhibited by purified recombinant Pγr; 20 mM Tris-HCl pH 7.5, 120 mM NaCl, 2 mM MgSO4, 1 mM BME, 10 μM [3H]cGMP, 25 °C. The note with it: both partners purified.
Series [3] concerns the molecule itself. The series is described as follows: SEC; PDE6C co-expressed with AIPL1, eluted from EGFP-nanobody resin with HRV-3C, preincubated with 3 mM ATP for 10 min at 25 °C; Superose 6 10/300 GL in 10 mM HEPES pH 7.5, 150 mM NaCl, 1 mM TCEP, 2 mM MgCl2.

T1 sequence (P27664 whole entry, chain 1 of 2): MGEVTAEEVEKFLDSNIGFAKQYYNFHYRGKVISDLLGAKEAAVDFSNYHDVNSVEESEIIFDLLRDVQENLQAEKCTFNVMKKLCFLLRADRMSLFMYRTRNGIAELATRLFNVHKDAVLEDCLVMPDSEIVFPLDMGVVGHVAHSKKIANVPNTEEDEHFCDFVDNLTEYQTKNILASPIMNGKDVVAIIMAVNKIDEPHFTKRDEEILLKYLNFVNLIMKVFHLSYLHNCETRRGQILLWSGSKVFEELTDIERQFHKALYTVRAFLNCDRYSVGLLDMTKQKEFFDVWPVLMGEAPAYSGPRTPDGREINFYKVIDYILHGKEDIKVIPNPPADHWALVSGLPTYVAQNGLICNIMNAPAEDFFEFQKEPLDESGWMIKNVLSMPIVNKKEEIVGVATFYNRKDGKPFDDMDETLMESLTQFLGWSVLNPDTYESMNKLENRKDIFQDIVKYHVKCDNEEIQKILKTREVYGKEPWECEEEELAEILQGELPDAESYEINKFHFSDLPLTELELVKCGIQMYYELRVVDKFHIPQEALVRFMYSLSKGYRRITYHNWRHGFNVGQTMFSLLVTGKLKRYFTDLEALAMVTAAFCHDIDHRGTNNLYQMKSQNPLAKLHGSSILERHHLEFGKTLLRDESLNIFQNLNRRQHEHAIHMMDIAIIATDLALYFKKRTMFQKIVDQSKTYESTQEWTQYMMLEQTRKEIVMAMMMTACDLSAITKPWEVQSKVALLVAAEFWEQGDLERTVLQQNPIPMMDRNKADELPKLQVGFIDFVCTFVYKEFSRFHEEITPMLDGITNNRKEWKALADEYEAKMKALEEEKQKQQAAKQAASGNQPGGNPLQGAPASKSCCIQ
T1 sequence (P23440 whole entry, chain 2 of 2): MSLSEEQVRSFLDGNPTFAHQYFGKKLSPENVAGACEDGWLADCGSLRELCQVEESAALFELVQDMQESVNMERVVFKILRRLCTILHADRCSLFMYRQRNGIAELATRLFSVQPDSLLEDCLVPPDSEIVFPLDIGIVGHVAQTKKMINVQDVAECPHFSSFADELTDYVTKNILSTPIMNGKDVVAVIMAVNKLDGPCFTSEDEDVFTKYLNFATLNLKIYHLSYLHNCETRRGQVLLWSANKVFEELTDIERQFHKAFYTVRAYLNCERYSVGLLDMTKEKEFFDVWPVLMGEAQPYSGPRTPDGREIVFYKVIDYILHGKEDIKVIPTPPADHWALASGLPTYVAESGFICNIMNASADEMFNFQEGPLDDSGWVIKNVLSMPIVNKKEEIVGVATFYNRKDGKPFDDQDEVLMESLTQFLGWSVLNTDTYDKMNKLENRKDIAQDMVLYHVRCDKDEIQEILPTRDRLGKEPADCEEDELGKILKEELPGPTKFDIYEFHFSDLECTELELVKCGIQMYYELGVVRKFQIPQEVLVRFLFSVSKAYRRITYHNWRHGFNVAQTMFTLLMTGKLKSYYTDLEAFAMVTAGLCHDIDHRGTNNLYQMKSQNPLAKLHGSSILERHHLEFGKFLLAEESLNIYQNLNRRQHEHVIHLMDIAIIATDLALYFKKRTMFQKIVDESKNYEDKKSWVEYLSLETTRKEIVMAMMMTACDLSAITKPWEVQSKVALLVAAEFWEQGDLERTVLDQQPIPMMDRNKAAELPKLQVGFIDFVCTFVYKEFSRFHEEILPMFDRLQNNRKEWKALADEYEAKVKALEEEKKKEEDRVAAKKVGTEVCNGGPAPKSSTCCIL

B1: His6-tagged bovine Pγr (rod PDE6 inhibitory γ-subunit), bacterially expressed (natural protein, UniProt P04972 1-87, looked up)
chain: MNLEPPKAEIRSATRVMGGPVTPRKGPPKFKQRQTRQFKSKPPKKGVQGFGDDIPGMEGLGTDITVICPWEAFNHLELHELAQYGII
notes: also called rod Pγ; purified recombinant Pγr
As to B1, the Ki in series [1] was 0.089 nM; in series [2] it was 0.095 nM and 0.088 nM.
Consider B2, for which the “stoichiometry N” value in series [3] was 2.

The values are drawn from publication PMC10819763, “Reconstitution of the phosphodiesterase 6 maturation process important for photoreceptor cell function” (The Journal of Biological Chemistry, 2023).
